In paper PMC8764033, “Single-molecule analysis of specificity and multivalency in binding of short linear substrate motifs to the APC/C” (Nature Communications, 2022):

B1: Clb5: yeast S-phase cyclin, APC/C substrate protein (protein, UniProt P30283 1-435, looked up)
S-phase entry cyclin-5: MGENHDHEQSIKRNSMIYNENERQLCNSNLKILQNKRALSKNDSSSKQQVQDSKPRRALTDVPVNNNPLSQNKRIVAGSKAAKVRREENIRPIVSAVQKRQIYNDRTAAEQEEEEEEEGEDDDAASIVNKKRRIDAEGVSEIVGWQDLDYVEKDDTAMVAEYSAEIFAFLYRRELETLPSHNYLLDKTSKYYLRPSMRTILVDWLVEVHEKFQCYPETLFLSINLMDRFLAKNKVTMNKLQLLAVTSLFIAAKFEEVNLPKLAEYAYITDGAASKNDIKNAEMFMLTSLEFNIGWPNPLNFLRRISKADDYDPVNRNIGKFILEYAYCCHQFIHLPPSTVSAMAMYIARRMTNRNKNELWNGTLQHYSGGIDPIHDEAFQSLCIDLVKDIASSKTHLDSLILKYKKPRYGSVYFQTFKWCTSEMHSNFQNLFNLK
B2: securin: separase inhibitor securin, APC/C substrate protein (protein, UniProt P40316 1-373, looked up)
Securin: MMPANEDKENNIVYTGNESSGINFPQTPAHLLKRSHSNILKPPVRLDQLKRDANSNNGNTLKYIQGGKEVSPTKRLHTHAQQQGRLPLAAKDNNRSKSFIFPETSNQSKDADLPQLQNTLSIRKNDQLRKLSQISRSRSRANHNDLLSNSRKLQKYGSVLGYNALPKMKSLVLKDLADSGKNEESSDDDEGNEDSESKLGKKLQSALLKQDSSDGENELNGGLGLFNEQGGLQQLIKNSTKNEQKTKNDKSDKTDDYDIEIAPQRQEPLPYVPEGYSPFQQDDIEKLKTFNSPYKLDLEDEDDTPDKVDLLPLEQIDEEGEKDETECITRNQEEGAALPLLSKNFKEVAAVPTMELVYSEEGLDPEELEDLVT
B3: Cdh1: APC/C activator subunit (protein, UniProt P53197 1-566, looked up)
APC/C activator protein CDH1: MSTNLNPFMNNTPSSSPLKGSESKRVSKRPISSSSSASLLSSPSRRSRPSTVYGDRYIPSRTDIDFNSIVSISSMASVPALNPSSTEDQVEYQKERQAHETYNTLLKNELFGEMLSKDTVGSESSIDRIKNTRPSTRGNVHAENTTRHGYELERVSTPPPEAAGLEEFSPHSTPVTPRRLFTSQQDEITRPSSNSVRGASLLTYQQRKGRRLSAASLLQSQFFDSMSPVRPDSKQLLLSPGKQFRQIAKVPYRVLDAPSLADDFYYSLIDWSSTDVLAVALGKSIFLTDNNTGDVVHLCDTENEYTSLSWIGAGSHLAVGQANGLVEIYDVMKRKCIRTLSGHIDRVACLSWNNHVLTSGSRDHRILHRDVRMPDPFFETIESHTQEVCGLKWNVADNKLASGGNDNVVHVYEGTSKSPILTFDEHKAAVKAMAWSPHKRGVLATGGGTADRRLKIWNVNTSIKMSDIDSGSQICNMVWSKNTNELVTSHGYSKYNLTLWDCNSMDPIAILKGHSFRVLHLTLSNDGTTVVSGAGDETLRYWKLFDKPKAKVQPNSLIFDAFNQIR

Tests used:
APC/C [1] = details: APC/C^Cdc20 vs APC/C^Cdh1; cited from earlier work
Excerpt: We find that the yeast securin ...

[2] = Aggregation / background fluorescence in SMOR assay; type: physicochemical
Procedure: To capture dynamic protein–protein interactions, dye-labeled substrate diluted in buffer C + BSA was added to the chamber containing immobilized proteins. Interactions were imaged by TIRF microscopy as described below. For optimal signal-to-noise ratio, peptide concentration was no greater than 1 nM. Protein substrates included Hsl1 aa 667–872 and a C-terminal HaloTag followed by a TAP tag, and were produced by translation in rabbit reticulocyte lysates using TnT Quick Coupled Transcription/Translation System (Promega) (see Supplementary Table 5 for plasmids). Protein was purified with magnetic IgG beads and labeled on the bead with JF549 or JF646 dye so that unbound dye could be washed away. Purified dye-labeled protein was then cleaved from the beads using TEV protease. Before adding substrate to the reaction chamber, oxygen scavenging reagents were added (10 nM protocatechuate-3,4-dioxygenase, 2.5 mM protocatechuic acid, and 1 mM Trolox)[41]. A detailed description of the SMOR analysis pipeline is found in Supplementary Note 1.

APC/C [3] = details: purified yeast components, 30 min; 20 (Mizrak & Morgan, 2019); cited from earlier work
Excerpt: It is therefore unlikely that activator dissociation is occurring during our measurements of substrate dissociation from APC/C^Cdh1 or APC/C^Cdc20. || page 6: Cdh1 in Supplementary Figure 6. 2. Fig. 1b. List human peptide sequences used in this study. Now added to Supplementary Figure 6. 3. APC/C-Cdh1 interaction stability and life-time. The SMOR assay is dependent on a stable APC/C-Cdh1 interaction, longer than the dwell times of APC/C-activator-substrate complexes. Can the authors measure the dwell time of APC/C bound to activator? Excellent point.

Molecule	processivity of ubiquitylation (in words) (APC/C [1])	aggregation / background (in words) [2]	dissociation from the APC/C (in words) (APC/C [3])
B1	more processive than that with APC/C^Cdh1	–	–
B2	more processive than that with APC/C^Cdh1	tendency to aggregate and create excessive background fluorescence	–
B3	–	–	dissociation from the APC/C was not detected in 30 min
